The binders below were run against M13 박테리오파지에서 전시되는 스트렙타비딘(streptavidin) (assay: fluorescence ELISA; plate coated with streptavidin-displaying M13 phage; fusion protein at 10, 50, 100 μg/ml; ex 395 nm / em 509 nm; reference is biotin-bound GFP).

fold fluorescence against biotin-bound GFP | Binder
2 배 (fold) | (2E9+GFP) (protein, part only; not given: linker, GFP, His tag, part only) chain, part: ESGGGSVQAGGSLRLSCTASGFTFADSDMGWYRQAPGKERERVAAIDSDGRTSYADSVKGRFTISKDNAKNTLYLQMNSLKPEDTAMYYCAAGVPTYDSSWCSRDYWGKGTQVTVSS
2 배 (fold) | (2B12+GFP) (protein, part only; not given: linker, GFP, His tag, part only) chain, part: ESGGGSVQVGESLRLACTASEFTFDDTDVGWYRQAPGNECELVSSINSDGGTYYTDSVKGRFTISLDNGKNTVYLQMDSLKPEDTAVYYCVADAKVKAQALGTLLCRILGNWGQGTQVTVSS
2 배 (fold) | (53A1+GFP) (protein, part only; not given: linker, GFP, His tag, part only) chain, part: ESGGGSVQVGESLRLACTASEFTFDDTDVGWYRQAPGNECELVSSINSDGGTYYTDSVKGRFTISLDNGKNTVYLQMDSLKPEDTAVYYCVADAKVKAQALGTLLCRILGNWGQGTQVTVSS

The binders below were run against M13 박테리오파지에서 전시되는 스트렙타비딘(streptavidin) (assay: fluorescence ELISA; plate coated with streptavidin-displaying M13 phage; fusion protein at 10, 50, 100 μg/ml; ex 554 nm / em 581 nm; reference is biotin-bound RFP).

fold fluorescence against biotin-bound RFP | Binder
2 배 (fold) | (2E9+RFP) (protein, part only; not given: linker, RFP, His tag, part only) chain, part: ESGGGSVQAGGSLRLSCTASGFTFADSDMGWYRQAPGKERERVAAIDSDGRTSYADSVKGRFTISKDNAKNTLYLQMNSLKPEDTAMYYCAAGVPTYDSSWCSRDYWGKGTQVTVSS
2 배 (fold) | (2B12+RFP) (protein, part only; not given: linker, RFP, His tag, part only) chain, part: ESGGGSVQVGESLRLACTASEFTFDDTDVGWYRQAPGNECELVSSINSDGGTYYTDSVKGRFTISLDNGKNTVYLQMDSLKPEDTAVYYCVADAKVKAQALGTLLCRILGNWGQGTQVTVSS
2 배 (fold) | (53A1+RFP) (protein, part only; not given: linker, RFP, His tag, part only) chain, part: ESGGGSVQVGESLRLACTASEFTFDDTDVGWYRQAPGNECELVSSINSDGGTYYTDSVKGRFTISLDNGKNTVYLQMDSLKPEDTAVYYCVADAKVKAQALGTLLCRILGNWGQGTQVTVSS
